Data from article PMC5942779, “Identification of a peptide inhibitor for the histone methyltransferase WHSC1” (PLoS ONE, 2018).
Square brackets hold non-standard residues; d marks the D form. Nle = CCCC[C@H](N)C(=O)O

Key:
Assay in all cases: cell-based or functional assay
EZH1 = EZH1 (UniProt Q92800 1-747)
EZH2 = EZH2 (UniProt Q15910 1-746)
G9a = G9a (UniProt Q96KQ7 1-1210)
SMYD2 = SMYD2 (UniProt Q9NRG4 1-433)
SETDB1 = SETDB1 (UniProt Q15047 1-1291)
PRMT6 = PRMT6 (UniProt Q96LA8 1-375)

Measured: Biochemical IC50 (enzymatic inhibition, panel of HMT enzymes)

SMYD2, sequence (Q9NRG4 whole entry): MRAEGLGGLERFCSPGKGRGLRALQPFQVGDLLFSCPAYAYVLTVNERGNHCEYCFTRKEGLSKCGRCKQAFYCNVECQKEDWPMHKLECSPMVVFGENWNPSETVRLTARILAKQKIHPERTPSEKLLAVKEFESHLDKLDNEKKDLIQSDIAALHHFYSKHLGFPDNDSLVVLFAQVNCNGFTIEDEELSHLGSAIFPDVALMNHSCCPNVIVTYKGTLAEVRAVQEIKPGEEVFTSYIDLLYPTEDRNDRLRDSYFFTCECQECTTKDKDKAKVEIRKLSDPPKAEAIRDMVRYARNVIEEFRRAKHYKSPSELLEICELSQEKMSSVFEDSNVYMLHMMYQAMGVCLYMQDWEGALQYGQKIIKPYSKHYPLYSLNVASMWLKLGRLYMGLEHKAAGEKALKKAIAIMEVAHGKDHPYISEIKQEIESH
EZH1, sequence (Q92800 whole entry): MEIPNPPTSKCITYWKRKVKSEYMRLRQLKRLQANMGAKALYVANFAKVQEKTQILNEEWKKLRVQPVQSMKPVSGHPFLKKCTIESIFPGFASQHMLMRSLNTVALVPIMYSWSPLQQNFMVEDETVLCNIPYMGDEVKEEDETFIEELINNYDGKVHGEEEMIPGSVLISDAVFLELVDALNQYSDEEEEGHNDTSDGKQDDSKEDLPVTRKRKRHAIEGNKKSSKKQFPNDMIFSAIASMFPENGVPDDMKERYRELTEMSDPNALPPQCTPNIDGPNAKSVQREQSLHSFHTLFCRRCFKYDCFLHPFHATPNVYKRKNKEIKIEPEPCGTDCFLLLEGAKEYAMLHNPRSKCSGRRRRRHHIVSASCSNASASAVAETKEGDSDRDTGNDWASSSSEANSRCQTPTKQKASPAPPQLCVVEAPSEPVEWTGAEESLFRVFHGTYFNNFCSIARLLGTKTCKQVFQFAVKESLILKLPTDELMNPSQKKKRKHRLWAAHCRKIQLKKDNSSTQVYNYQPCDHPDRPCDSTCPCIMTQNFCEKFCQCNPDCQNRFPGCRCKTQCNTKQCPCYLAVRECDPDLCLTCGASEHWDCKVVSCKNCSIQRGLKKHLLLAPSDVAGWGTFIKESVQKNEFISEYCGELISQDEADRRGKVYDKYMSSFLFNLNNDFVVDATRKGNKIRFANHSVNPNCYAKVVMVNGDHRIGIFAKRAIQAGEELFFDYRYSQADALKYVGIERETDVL
EZH2, sequence (Q15910 whole entry): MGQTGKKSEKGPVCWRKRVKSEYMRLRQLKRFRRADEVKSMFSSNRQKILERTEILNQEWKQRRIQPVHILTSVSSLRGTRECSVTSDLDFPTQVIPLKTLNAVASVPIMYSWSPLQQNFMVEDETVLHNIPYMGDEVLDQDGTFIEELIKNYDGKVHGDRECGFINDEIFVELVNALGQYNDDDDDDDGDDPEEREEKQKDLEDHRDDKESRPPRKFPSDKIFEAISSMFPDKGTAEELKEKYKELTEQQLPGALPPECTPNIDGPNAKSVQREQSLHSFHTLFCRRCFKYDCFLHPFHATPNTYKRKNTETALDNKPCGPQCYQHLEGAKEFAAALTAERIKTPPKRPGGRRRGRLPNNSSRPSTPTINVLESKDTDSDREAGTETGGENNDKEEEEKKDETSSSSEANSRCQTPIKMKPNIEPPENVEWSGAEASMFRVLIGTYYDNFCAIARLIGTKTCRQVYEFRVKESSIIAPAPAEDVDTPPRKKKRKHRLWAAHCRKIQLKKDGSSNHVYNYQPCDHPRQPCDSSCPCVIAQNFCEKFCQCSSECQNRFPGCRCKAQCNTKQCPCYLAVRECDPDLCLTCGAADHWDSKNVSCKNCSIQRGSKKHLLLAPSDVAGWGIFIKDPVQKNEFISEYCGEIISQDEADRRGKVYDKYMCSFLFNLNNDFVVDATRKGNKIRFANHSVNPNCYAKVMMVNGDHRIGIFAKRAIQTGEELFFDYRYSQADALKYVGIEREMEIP
PRMT6, sequence (Q96LA8 whole entry): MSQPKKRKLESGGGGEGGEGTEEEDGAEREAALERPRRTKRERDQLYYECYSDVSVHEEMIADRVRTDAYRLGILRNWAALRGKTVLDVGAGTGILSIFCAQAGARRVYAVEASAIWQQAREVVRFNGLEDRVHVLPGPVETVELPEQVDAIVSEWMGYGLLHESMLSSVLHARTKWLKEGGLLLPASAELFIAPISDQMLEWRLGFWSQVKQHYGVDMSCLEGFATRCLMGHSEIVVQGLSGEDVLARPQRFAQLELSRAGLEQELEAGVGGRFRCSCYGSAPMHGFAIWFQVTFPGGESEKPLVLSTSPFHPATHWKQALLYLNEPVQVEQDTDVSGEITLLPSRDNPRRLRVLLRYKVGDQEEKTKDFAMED
G9a, sequence (Q96KQ7 whole entry): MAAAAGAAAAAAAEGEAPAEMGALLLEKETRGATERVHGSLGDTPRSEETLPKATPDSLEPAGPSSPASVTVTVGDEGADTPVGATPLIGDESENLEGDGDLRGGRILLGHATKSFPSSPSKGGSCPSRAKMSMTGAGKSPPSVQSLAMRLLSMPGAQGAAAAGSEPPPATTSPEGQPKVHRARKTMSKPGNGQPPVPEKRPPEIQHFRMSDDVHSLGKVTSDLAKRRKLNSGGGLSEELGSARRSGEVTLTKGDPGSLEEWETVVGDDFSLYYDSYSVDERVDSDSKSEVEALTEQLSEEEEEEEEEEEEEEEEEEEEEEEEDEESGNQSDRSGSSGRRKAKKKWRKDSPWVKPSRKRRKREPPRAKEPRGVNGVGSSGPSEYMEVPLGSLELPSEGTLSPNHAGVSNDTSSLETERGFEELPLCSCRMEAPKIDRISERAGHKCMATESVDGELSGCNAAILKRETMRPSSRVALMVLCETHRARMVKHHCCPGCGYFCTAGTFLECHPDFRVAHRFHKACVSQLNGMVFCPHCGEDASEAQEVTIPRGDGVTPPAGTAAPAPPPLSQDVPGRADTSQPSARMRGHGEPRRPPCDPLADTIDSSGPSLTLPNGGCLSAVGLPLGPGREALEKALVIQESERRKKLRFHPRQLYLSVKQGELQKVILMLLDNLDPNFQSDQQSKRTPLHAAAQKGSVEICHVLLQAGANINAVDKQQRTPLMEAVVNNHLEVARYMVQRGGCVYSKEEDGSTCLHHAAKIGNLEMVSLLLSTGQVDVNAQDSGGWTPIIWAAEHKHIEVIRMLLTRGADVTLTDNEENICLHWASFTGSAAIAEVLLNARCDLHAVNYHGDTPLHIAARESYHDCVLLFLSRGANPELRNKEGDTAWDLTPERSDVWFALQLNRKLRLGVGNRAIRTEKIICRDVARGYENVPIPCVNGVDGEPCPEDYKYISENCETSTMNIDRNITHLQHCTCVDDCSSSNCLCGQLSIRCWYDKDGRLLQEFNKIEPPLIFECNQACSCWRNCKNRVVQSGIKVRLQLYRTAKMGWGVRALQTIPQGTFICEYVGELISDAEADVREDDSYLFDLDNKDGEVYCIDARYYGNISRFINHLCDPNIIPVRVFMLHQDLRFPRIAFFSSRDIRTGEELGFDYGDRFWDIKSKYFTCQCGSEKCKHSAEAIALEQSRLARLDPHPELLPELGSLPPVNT

Ac-GV[Nle]RI-NH2 [PTD2]
> 200 µM: EZH1 | EZH2 | G9a | SMYD2 | SETDB1 | PRMT6
